Assay results reported in article PMC11417369, “DNA sequence and chromatin differentiate sequence-specific transcription factor binding in the human malaria parasite Plasmodium falciparum”.

T1: SIP2 D1 (Plasmodium falciparum, UniProt C6KSN9 177-235)
T1 sequence: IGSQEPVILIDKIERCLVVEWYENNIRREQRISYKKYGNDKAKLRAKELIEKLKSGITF

T2: HDP1 homeodomain-like (Plasmodium falciparum, UniProt Q8IKH4 2990-3078)
T2 sequence: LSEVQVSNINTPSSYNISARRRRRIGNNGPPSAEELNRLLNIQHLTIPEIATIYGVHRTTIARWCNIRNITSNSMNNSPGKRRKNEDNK

B1: GTGCAC_site9981 (dsDNA)
DNA 1: ATAATGTTCACATAGGTGCACTAATATAATTATCCA
DNA 2: TGGATAATTATATTAGTGCACCTATGTGAACATTAT
B2: GTGCAC_site9596 (dsDNA)
DNA 1: TATATTTTTATGTGTGTGCACAAAATAACAAAATAT
DNA 2: ATATTTTGTTATTTTGTGCACACACATAAAAATATA
B3: GTGCAC_site10073 (dsDNA)
DNA 1: AAATACTGTACAAAGGTGCATAAAAAGTGGGGCATA
DNA 2: TATGCCCCACTTTTTATGCACCTTTGTACAGTATTT
B4: GTGCAC_site9822 (dsDNA)
DNA 1: ATCGTGTTAAATGTTGTGCACATATAAATTACAAAA
DNA 2: TTTTGTAATTTATATGTGCACAACATTTAACACGAT
B5: GTGCAC_site9931 (dsDNA)
DNA 1: ATAAAAATAAAAAGTGTGCACACAAAAATATATATA
DNA 2: TATATATATTTTTGTGTGCACACTTTTTATTTTTAT
B6: GTGCAC_site10770 (dsDNA)
DNA 1: TATATACATTTTTATGTGCACATTTTATTTTTAAAT
DNA 2: ATTTAAAAATAAAATGTGCACATAAAAATGTATATA
B7: GTGCAC_site10578 (dsDNA)
DNA 1: CATATTGTCATTCTGGTGCACTTTTTTTTTTTTTTT
DNA 2: AAAAAAAAAAAAAAAGTGCACCAGAATGACAATATG
B8: GTGCAC_site9431 (dsDNA)
DNA 1: TCTTCTTTAAAAGAGGTGCACTATATAATGTGATTA
DNA 2: TAATCACATTATATAGTGCACCTCTTTTAAAGAAGA
B9: GTGCAC_site10342 (dsDNA)
DNA 1: TTTTTAAACCATGTTGTGCACATTTTTTTTGGATTT
DNA 2: AAATCCAAAAAAAATGTGCACAACATGGTTTAAAAA
B10: GTGCAC_site10451 (dsDNA)
DNA 1: ATGTTATAATTTAGTGTGCACATATTAAGAGGAACA
DNA 2: TGTTCCTCTTAATATGTGCACACTAAATTATAACAT
B11: GTGCAC_site10700 (dsDNA)
DNA 1: ATTATACAAATTGAGGTGCATGAAACAAAATATGAA
DNA 2: TTCATATTTTGTTTCATGCACCTCAATTTGTATAAT
B12: GTGCAC_site10418 (dsDNA)
DNA 1: CTTTTCTATTTTTTCGTGCACTATAAATATTTTAAT
DNA 2: ATTAAAATATTTATAGTGCACGAAAAAATAGAAAAG
B13: GTGCAC_site9611 (dsDNA)
DNA 1: TATGAAACGATATATGTGCACATGAGGGAATATAGA
DNA 2: TCTATATTCCCTCATGTGCACATATATCGTTTCATA
B14: GTGCAC_site9957 (dsDNA)
DNA 1: TTTTAATGTACCAGTGTGCACCTTGCGTACATATTA
DNA 2: TAATATGTACGCAAGGTGCACACTGGTACATTAAAA
B15: GTGCAC_site10194 (dsDNA)
DNA 1: AATTTTCCATAGATTGTGCACAAATTTTTATTTTGT
DNA 2: ACAAAATAAAAATTTGTGCACAATCTATGGAAAATT
B16: GTGCAC_site10755 (dsDNA)
DNA 1: TAATGCAACATTTATGTGCACATAAATATTTTTTAA
DNA 2: TTAAAAAATATTTATGTGCACATAAATGTTGCATTA
B17: GTGCAC_site10340 (dsDNA)
DNA 1: ATTATTATTAATCTTGTGCACATATATTTTAATTAG
DNA 2: CTAATTAAAATATATGTGCACAAGATTAATAATAAT
B18: GTGCAC_site10153 (dsDNA)
DNA 1: AAAATGTAATATTGGGTGCACAATAAGTTTGATGTC
DNA 2: GACATCAAACTTATTGTGCACCCAATATTACATTTT
B19: GTGCAC_site10523 (dsDNA)
DNA 1: TCGTTTCATAATATTGTGCACATATATATTTACAAT
DNA 2: ATTGTAAATATATATGTGCACAATATTATGAAACGA
B20: GTGCAC_site10054 (dsDNA)
DNA 1: GTCTATATATTTTAGGTGCAACGTAAATGTAAAAAT
DNA 2: ATTTTTACATTTACGTTGCACCTAAAATATATAGAC
B21: GTGCAC_site9812 (dsDNA)
DNA 1: TGTTTTATTTTTTTTGTGCACATACCTTTAGCATCA
DNA 2: TGATGCTAAAGGTATGTGCACAAAAAAAATAAAACA
B22: GTGCAC_site9422 (dsDNA)
DNA 1: CACTCTTAAAATAAGGTGCACTATATAACGTGATTA
DNA 2: TAATCACGTTATATAGTGCACCTTATTTTAAGAGTG
B23: GTGCAC_site10368 (dsDNA)
DNA 1: ACATGTGAATTTTAGGTGCACTTGTAATTTAACATT
DNA 2: AATGTTAAATTACAAGTGCACCTAAAATTCACATGT
B24: GTGCAC_site9947 (dsDNA)
DNA 1: TATTTGAAAACATAGGTGCACATTATTTTATAATCT
DNA 2: AGATTATAAAATAATGTGCACCTATGTTTTCAAATA
B25: GTGCAC_site9630 (dsDNA)
DNA 1: TTTAATTTATATTTTGTGCACATCTTATTATATATA
DNA 2: TATATATAATAAGATGTGCACAAAATATAAATTAAA
B26: GTGCAC_site10665 (dsDNA)
DNA 1: TATGTATATTTTTTTGTGCACATATATATATATATA
DNA 2: TATATATATATATATGTGCACAAAAAAATATACATA
B27: GTGCAC_site9624 (dsDNA)
DNA 1: GACAAATAATAAAAGGTGCATTATACTTAACAAAAA
DNA 2: TTTTTGTTAAGTATAATGCACCTTTTATTATTTGTC
B28: GTGCAC_site9536 (dsDNA)
DNA 1: AATAATATACCTCTTGTGCACATATTAAAAGTTCAT
DNA 2: ATGAACTTTTAATATGTGCACAAGAGGTATATTATT
B29: GTGCAC_site9671 (dsDNA)
DNA 1: GTTACAGAGAATGTTGTGCACATATCAATAATATAT
DNA 2: ATATATTATTGATATGTGCACAACATTCTCTGTAAC
B30: GTGCAC_site10051 (dsDNA)
DNA 1: AATAAATTAAAACAGGTGCACTATATTACACACGCT
DNA 2: AGCGTGTGTAATATAGTGCACCTGTTTTAATTTATT
B31: GTGCAC_site9615 (dsDNA)
DNA 1: TTATTTTATTTTTTTGTGCACATATATATTTATAAA
DNA 2: TTTATAAATATATATGTGCACAAAAAAATAAAATAA

How the values were obtained:
Experiment in all cases: gcPBM; about 25 ug protein; PBS, 1% milk, 0.2 mg/ml BSA, salmon testes DNA, 0.03% Triton X-100
SIP2 D1 = biological target: T1, SIP2 D1; settings: tags: N-terminal GST (pGEX-4T-1), kept; label: surface-attached array probe
AP2-I D3 = AP2-I D3 (Plasmodium falciparum, UniProt Q8IJW6 910-1027); settings: tags: N-terminal GST (pGEX-4T-1), kept; label: surface-attached array probe
HDP1 homeodomain-like = biological target: T2, HDP1 homeodomain-like; settings: tags: N-terminal GST (pGEX-4T-1), kept; chain copies: 2; label: surface-attached array probe

Binder | binding signal (SIP2 D1) | binding signal (AP2-I D3) | binding signal (HDP1 homeodomain-like)
B1 | 11.4 ln median PBM intensity, better of two orientations | 12.2 ln median PBM intensity, better of two orientations | –
B2 | – | – | 11.4 ln median PBM intensity, better of two orientations
B3 | 11.1 ln median PBM intensity, better of two orientations | 11.7 ln median PBM intensity, better of two orientations | –
B4 | – | – | 11.3 ln median PBM intensity, better of two orientations
B5 | – | – | 11.3 ln median PBM intensity, better of two orientations
B6 | – | – | 11.4 ln median PBM intensity, better of two orientations
B7 | 11.4 ln median PBM intensity, better of two orientations | 10.9 ln median PBM intensity, better of two orientations | –
B8 | 11.8 ln median PBM intensity, better of two orientations | 12.2 ln median PBM intensity, better of two orientations | –
B9 | – | – | 11.3 ln median PBM intensity, better of two orientations
B10 | – | – | 11.4 ln median PBM intensity, better of two orientations
B11 | 10.6 ln median PBM intensity, better of two orientations | 9.77 ln median PBM intensity, better of two orientations | –
B12 | 10.6 ln median PBM intensity, better of two orientations | 12.3 ln median PBM intensity, better of two orientations | –
B13 | – | – | 11.3 ln median PBM intensity, better of two orientations
B14 | 11.8 ln median PBM intensity, better of two orientations | 10.3 ln median PBM intensity, better of two orientations | –
B15 | – | – | 11.3 ln median PBM intensity, better of two orientations
B16 | – | – | 11.4 ln median PBM intensity, better of two orientations

Binder | binding signal (SIP2 D1) | binding signal (AP2-I D3) | binding signal (HDP1 homeodomain-like)
B17 | – | – | 11.6 ln median PBM intensity, better of two orientations
B18 | 11.5 ln median PBM intensity, better of two orientations | 12.2 ln median PBM intensity, better of two orientations | –
B19 | – | – | 11.5 ln median PBM intensity, better of two orientations
B20 | – | – | 11.5 ln median PBM intensity, better of two orientations
B21 | – | – | 11.4 ln median PBM intensity, better of two orientations
B22 | 11.7 ln median PBM intensity, better of two orientations | 12.2 ln median PBM intensity, better of two orientations | –
B23 | 11.7 ln median PBM intensity, better of two orientations | 10.9 ln median PBM intensity, better of two orientations | –
B24 | 11.6 ln median PBM intensity, better of two orientations | 11.1 ln median PBM intensity, better of two orientations | –
B25 | – | – | 11.7 ln median PBM intensity, better of two orientations
B26 | – | – | 11.3 ln median PBM intensity, better of two orientations
B27 | 11.4 ln median PBM intensity, better of two orientations | 12.2 ln median PBM intensity, better of two orientations | –
B28 | – | – | 11.3 ln median PBM intensity, better of two orientations
B29 | – | – | 11.4 ln median PBM intensity, better of two orientations
B30 | 11.6 ln median PBM intensity, better of two orientations | 12 ln median PBM intensity, better of two orientations | –
B31 | – | – | 11.9 ln median PBM intensity, better of two orientations
